Measured values reported in US20240317834A1, “COMPOSITIONS AND METHODS FOR NEUROLOGICAL DISEASES” (CODA BIOTHERAPEUTICS, INC., priority 2020, published 2024).
Changes are numbered by the printed parent chain. In names and notes the source's numbering stands.

Tested on: Lenti-X 293T cells
Test: YFP fluorescence quenching anion reporter plate reader assay of engineered receptors stimulated with acetylcholine or a non-native ligand
Type: cell-based
Conditions: for percent quench of YFP fluorescence, 10 uM ach: acetylcholine 10 uM; for percent quench of YFP fluorescence, 100 uM ach: acetylcholine 100 uM; for percent quench of YFP fluorescence, 1 mM ach: acetylcholine 1 mM; for percent quench of YFP fluorescence, 3 mM ach: acetylcholine 3 mM
Excerpt: To screen these mutant LGICs for those having novel response profiles to ligands, an anion reporter assay was developed to assess the function of the LGICs in a high throughput format. In this assay, cells expressing a YFP reporter whose fluorescence is quenched in the presence of anion are transfected with DNA encoding the channel of interest. Upon exposure to ligand, channels that are activated will flux anion, resulting in a dose-dependent quench of the YFP that can be detected on a plate reader. The greater the quench signal (i.e., the more positive the value), the higher the ligand activity on the receptor is.
Lenti-X 293T cells (LX293T, Clontech) were maintained in DMEM containing 10% FBS and 1% penicillin/streptomycin (Invitrogen). […] Two days before assay, cells were split at a density of 20,000 cells/well in a 96-well tissue culture plate coated with poly-d lysine (Thermo Scientific). The next day, the cells were transiently transfected with 0.1 μg of DNA per well using standard Fugene protocol (Promega). On the day of assay, cells were washed 2 times in 1× extracellular solution (1×ECS: 140 mM NaCl, 5 mM KCl, 1 mM MgCl2, 2 mM CaCl2), 10 mM HEPES, 10 mM glucose, pH 7.2, mOsms 300). After the last wash, 100 μL of 1×ECS was added to the wells and the plate was incubated at 37° C. for 30 min. While incubating the plate, the drugs were diluted to a 2× concentration in 1×ECS-NaI (same components as 1×ECS except the 140 mM NaCl was replaced by 140 mM NaI). The plates were then read on a Flexstation3 (Molecular Devices). Each well, 8 wells at a time, of the plate is read for 2 min using a Flexstation3 (Molecular Devices) as follows: 1) a baseline YFP fluorescence is read for 17 sec, 2) 100 μL of ligand is added, and 3) the changes in YFP fluorescence are then measured every 1.3 sec for 1 minute and 43 seconds. The percent quench is calculated from the average fluorescence of the last 10 seconds of the read divided by the baseline average of the first 15 seconds prior to the ligand addition.
FIGS. 1A-1J provide heat maps of the percent quench of YFP fluorescence following stimulation by various doses of either acetylcholine or the non-native ligand as indicated in the Figures. CODA71 (SEQ ID NO: 33) was used as a control, and CODA75 (SEQ ID NO: 29, a non-responding chimeric engineered receptor) was used as the negative control. Quenching of the fluorescence signal, as indicated by blue shaded cells, indicate the level of engineered receptor activation by the non-native ligand at that concentration.

B1: CODA236: engineered chimeric LGIC receptor, R101F in SEQ ID NO: 33 (protein)
chain: MRCSPGGVWLALAASLLHVSLQGEFQRKLYKELVKNYNPLERPVANDSQPLTVYFSLSLLQIMDVDEKNQVLTTNIWLQMSWTDHYLQWNVSEYPGVKTVFFPDGQIWKPDILLYNSADERFDATFHTNVLVNSSGHCQYLPPGIFKSSCPMDLKNFPMDVQTCKLKFGSWSYGGWSLDLQMQEADISGYIPNGEWDLVGIPGKRSERFYECCKEPYPDVTFTVTMRRRMGYYLIQMYIPSLLIVILSWISFWINMDAAPARVGLGITTVLTMTTQSSGSRASLPKVSYVKAIDIWMAVCLLFVFSALLEYAAVNFVSRQHKELLRFRRKRRHHKSPMLNLFQEDEAGEGRFNFSAYGMGPACLQAKDGISVKGANNSNTTNPPPAPSKSPEEMRKLFIQRAKKIDKISRIGFPMAFLIFNMFYWIIYKIVRREDVHNQ
modifications: synthetic sequence of chimeric LGIC
1 nM CNL001, first column
  YFP fluorescence quenching using CNL001: 9.048%
1 nM CNL001, second column
  YFP fluorescence quenching using CNL001: 26.601%
3 nM brd
  YFP fluorescence quenching using TC-5619/Bradanicline: 49.33%
3 nM var, first column
  YFP fluorescence quenching using Varenicline: 19.949
3 nM var, second column
  YFP fluorescence quenching using Varenicline: 22.334
10 nM CNL001, first column
  YFP fluorescence quenching using CNL001: 71.533%
10 nM CNL001, second column
  YFP fluorescence quenching using CNL001: 72.948%
30 nM brd
  YFP fluorescence quenching using TC-5619/Bradanicline: 77.38%
30 nM fac
  YFP fluorescence quenching using Facinicline: −28.54
30 nM var, first column
  YFP fluorescence quenching using Varenicline: 15.764
30 nM var, second column
  YFP fluorescence quenching using Varenicline: 16.213
50 nM CNL001, first column
  YFP fluorescence quenching using CNL001: 75.895%
50 nM CNL001, second column
  YFP fluorescence quenching using CNL001: 74.238%
50 nM abt
  YFP fluorescence quenching using ABT-126: −18.69%
100 nM CNL001, first column
  YFP fluorescence quenching using CNL001: 76%
100 nM CNL001, second column
  YFP fluorescence quenching using CNL001: 75.861%
100 nM CNL002
  YFP fluorescence quenching using CNL002: −9.56%
100 nM abt
  YFP fluorescence quenching using ABT-126: −23.01%
100 nM azd0328
  YFP fluorescence quenching using AZD-0328: −9.78%
300 nM abt
  YFP fluorescence quenching using ABT-126: −20.92%
300 nM azd0328
  YFP fluorescence quenching using AZD-0328: 49.64%
300 nM brd
  YFP fluorescence quenching using TC-5619/Bradanicline: 77.51%
300 nM fac
  YFP fluorescence quenching using Facinicline: 72.98
300 nM var, first column
  YFP fluorescence quenching using Varenicline: 23.135
300 nM var, second column
  YFP fluorescence quenching using Varenicline: 22.987
500 nM var, first column
  YFP fluorescence quenching using Varenicline: 35.048
500 nM var, second column
  YFP fluorescence quenching using Varenicline: 34.188
1 uM CNL001, first column
  YFP fluorescence quenching using CNL001: 76.367%
1 uM CNL001, second column
  YFP fluorescence quenching using CNL001: 76.162%
1 uM CNL002
  YFP fluorescence quenching using CNL002: 56.9%
1 uM abt
  YFP fluorescence quenching using ABT-126: 4.99%
1 uM tc6987
  YFP fluorescence quenching using TC-6987: 45.34
1 uM var, first column
  YFP fluorescence quenching using Varenicline: 71.031
1 uM var, second column
  YFP fluorescence quenching using Varenicline: 71.005
10 uM tc6987
  YFP fluorescence quenching using TC-6987: 70.04
30 uM CNL002
  YFP fluorescence quenching using CNL002: 70.28%
30 uM azd0328
  YFP fluorescence quenching using AZD-0328: 81.14%
30 uM fac
  YFP fluorescence quenching using Facinicline: 87.6
500 uM tc6987
  YFP fluorescence quenching using TC-6987: 75.86
  percent quench of YFP fluorescence, 10 uM ach: −18.24%
  percent quench of YFP fluorescence, 100 uM ach: 60%
  percent quench of YFP fluorescence, 1 mM ach: 66.07%
  percent quench of YFP fluorescence, 3 mM ach: 71.38%

B2: CODA237: engineered chimeric LGIC receptor, R101M in SEQ ID NO: 33 (protein)
chain: B1 chain with F101M
modifications: synthetic sequence of chimeric LGIC
1 nM CNL001, first column
  YFP fluorescence quenching using CNL001: −2.114%
1 nM CNL001, second column
  YFP fluorescence quenching using CNL001: −5.079%
3 nM brd
  YFP fluorescence quenching using TC-5619/Bradanicline: −14.87%
3 nM var, first column
  YFP fluorescence quenching using Varenicline: 18.429
3 nM var, second column
  YFP fluorescence quenching using Varenicline: 16.83
10 nM CNL001, first column
  YFP fluorescence quenching using CNL001: 15.096%
10 nM CNL001, second column
  YFP fluorescence quenching using CNL001: 50.554%
30 nM brd
  YFP fluorescence quenching using TC-5619/Bradanicline: 69.93%
30 nM fac
  YFP fluorescence quenching using Facinicline: −24.14
30 nM var, first column
  YFP fluorescence quenching using Varenicline: 23.07
30 nM var, second column
  YFP fluorescence quenching using Varenicline: 15.868
50 nM CNL001, first column
  YFP fluorescence quenching using CNL001: 66.585%
50 nM CNL001, second column
  YFP fluorescence quenching using CNL001: 74.462%
50 nM abt
  YFP fluorescence quenching using ABT-126: −24.34%
100 nM CNL001, first column
  YFP fluorescence quenching using CNL001: 78%
100 nM CNL001, second column
  YFP fluorescence quenching using CNL001: 77.411%
100 nM CNL002
  YFP fluorescence quenching using CNL002: −8.68%
100 nM abt
  YFP fluorescence quenching using ABT-126: −20.22%
100 nM azd0328
  YFP fluorescence quenching using AZD-0328: −17.84%
300 nM abt
  YFP fluorescence quenching using ABT-126: −20.57%
300 nM azd0328
  YFP fluorescence quenching using AZD-0328: −11.98%
300 nM brd
  YFP fluorescence quenching using TC-5619/Bradanicline: 76.57%
300 nM fac
  YFP fluorescence quenching using Facinicline: −14.38
300 nM var, first column
  YFP fluorescence quenching using Varenicline: 18.819
300 nM var, second column
  YFP fluorescence quenching using Varenicline: 19.155
500 nM var, first column
  YFP fluorescence quenching using Varenicline: 19.117
500 nM var, second column
  YFP fluorescence quenching using Varenicline: 22.593
1 uM CNL001, first column
  YFP fluorescence quenching using CNL001: 79.06%
1 uM CNL001, second column
  YFP fluorescence quenching using CNL001: 79.162%
1 uM CNL002
  YFP fluorescence quenching using CNL002: −2.24%
1 uM abt
  YFP fluorescence quenching using ABT-126: −19.55%
1 uM tc6987
  YFP fluorescence quenching using TC-6987: −21.62
1 uM var, first column
  YFP fluorescence quenching using Varenicline: 24.525
1 uM var, second column
  YFP fluorescence quenching using Varenicline: 23.383
10 uM tc6987
  YFP fluorescence quenching using TC-6987: 21.52
30 uM CNL002
  YFP fluorescence quenching using CNL002: 66.99%
30 uM azd0328
  YFP fluorescence quenching using AZD-0328: 81.2%
30 uM fac
  YFP fluorescence quenching using Facinicline: 88.78
500 uM tc6987
  YFP fluorescence quenching using TC-6987: 60.33
  percent quench of YFP fluorescence, 10 uM ach: −16.79%
  percent quench of YFP fluorescence, 100 uM ach: −18.63%
  percent quench of YFP fluorescence, 1 mM ach: 46.28%
  percent quench of YFP fluorescence, 3 mM ach: 69.31%
